Assay results: article PMC6399494

Experiments:
[1] = immunoblot, Hepa1c1c7 lysate, normalised to actin; conditions: glycan gained; control: wild type full-length LDLR
[2] = cell-surface biotinylation and confocal microscopy, HEK293; conditions: glycan gained; control: wild type full-length LDLR
[3] = immunoblot of mature LDLR form, HEK293; conditions: glycan lost; control: DMSO-treated cells

| Substance | expression_or_secretion [1] | localisation_or_trafficking [2] | localisation_or_trafficking [3] |
| --- | --- | --- | --- |
| LDL receptor (LDLR): D203N | no change | no change |  |
| LDL receptor (LDLR): tunicamycin, WT LDLR |  |  | no change |
